Patent US20210371516A1

Key:
[1] = target: antigen on NCI-H187 classic small cell lung carcinoma cells (ATCC Number: CRL-5804) recognised by PTA-2358; test: competition flow cytometry on NCI-H187 cells against mouse PTA-2358; CHO-K1-derived
[2] = target: antigen on NCI-H187 classic small cell lung carcinoma cells (ATCC Number: CRL-5804) recognised by PTA-2358; test: competition flow cytometry on NCI-H187 cells against mouse PTA-2358; NS0-derived
[3] = target: antigen on NCI-H187 classic small cell lung carcinoma cells (ATCC Number: CRL-5804) recognised by PTA-2357; test: competition flow cytometry on NCI-H187 cells against mouse PTA-2357; NS0-derived
[4] = target: antigen on NCI-H187 classic small cell lung carcinoma cells (ATCC Number: CRL-5804) recognised by PTA-2357; test: competition flow cytometry on NCI-H187 cells against mouse PTA-2357; CHO-K1-derived

Binder | Relative IC50 (fold of chimeric PTA-2358) [1] | Relative IC50 (fold of chimeric PTA-2358) [2] | Relative IC50 (fold of chimeric PTA-2357) [3] | Relative IC50 (fold of chimeric PTA-2357) [4]
PTA-2358 VH4/VK1 IgG1 antibody (antibody, V domains shown) VH: EVQLVQSGAEVKKPGASVKLSCTASGFNIKDYYMHWVRQAPGQGLEWIGWIDPGNGDTECAPKFQGRATLTADTSISTAYLELSRLRSDDTAVYYCNAPYYSGSSHFDYWGQGTTVTVSS VL: DIVLTQSPDSLAVSLGERATINCRASKSVSASGYSFLHWYQQKPGQPPKLLIYLASNLESGVPDRFSGSGSGTDFTLTISSLQEEDVATYYCQHSRELRTFGQGTKLEIK | 1.48 | 2.65 | – | –
PTA-2358 VH4/VK2 IgG1 antibody (antibody, V domains shown) VH: EVQLVQSGAEVKKPGASVKLSCTASGFNIKDYYMHWVRQAPGQGLEWIGWIDPGNGDTECAPKFQGRATLTADTSISTAYLELSRLRSDDTAVYYCNAPYYSGSSHFDYWGQGTTVTVSS VL: DIVLTQSPDSLAVSLGERATINCRASKSVSASGYSFLHWYQQKPGQPPKLLIYLASNLESGVPDRFSGSGSGTDFTLTISSLQAEDVATYYCQHSRELRTFGQGTKLEIK | 1.68 | 1.49 | – | –
PTA-2358 VH2/VK2 IgG1 antibody (antibody, V domains shown) VH: EVQLVQSGAEVKKPGASVKLSCTASGFNIKDYYMHWVKQAPGQGLEWIGWIDPGNGDTECAPKFQGRATLTADTSINTAYLELSRLRSDDTAVYYCNAPYYSGSSHFDYWGQGTTVTVSS VL: DIVLTQSPDSLAVSLGERATINCRASKSVSASGYSFLHWYQQKPGQPPKLLIYLASNLESGVPDRFSGSGSGTDFTLTISSLQAEDVATYYCQHSRELRTFGQGTKLEIK | 1.29 | 1.03 | – | –
PTA-2358 VH5/VK2 IgG1 antibody (antibody, V domains shown) VH: EVQLVQSGAEVKKPGASVKVSCTASGFNIKDYYMHWVRQAPGQGLEWIGWIDPGNGDTECAPKFQGRATITADTSISTAYMELSRLRSDDTAVYYCNAPYYSGSSHFDYWGQGTTVTVSS VL: DIVLTQSPDSLAVSLGERATINCRASKSVSASGYSFLHWYQQKPGQPPKLLIYLASNLESGVPDRFSGSGSGTDFTLTISSLQAEDVATYYCQHSRELRTFGQGTKLEIK | 1.68 | 1.11 | – | –
PTA-2358 VH5/VK1 IgG1 antibody (antibody, V domains shown) VH: EVQLVQSGAEVKKPGASVKVSCTASGFNIKDYYMHWVRQAPGQGLEWIGWIDPGNGDTECAPKFQGRATITADTSISTAYMELSRLRSDDTAVYYCNAPYYSGSSHFDYWGQGTTVTVSS VL: DIVLTQSPDSLAVSLGERATINCRASKSVSASGYSFLHWYQQKPGQPPKLLIYLASNLESGVPDRFSGSGSGTDFTLTISSLQEEDVATYYCQHSRELRTFGQGTKLEIK | 1.69 | 1.65 | – | –
PTA-2357 VH4/VK2 IgG1 antibody (antibody, V domains shown) VH: QVQLVQSGAEVKKPGASVKVSCKGSGYPFTDYTIHWVRQAPGQGLEWIGHISTYSGNTNNNQKFKGRATMTVDKSTSTAYMELRSLRSDDTAVYYCARGDYYGSFYKFEYWGQGTTVTVSS VL: DIKMTQSPSSLSASVGDRVTITCGASENIYGALNWFQRKPGKAPKLLIYGATNLADGMPSRFSGSGSGRDFTLTISSLQPEDFATYFCQNVLSIPYTFGQGTKLEIK | – | – | 1.34 | 1.5
PTA-2357 VH2/VK3 IgG1 antibody (antibody, V domains shown) VH: QVQLVQSGAEVKKPGASVKVSCKGSGYPFTDYTIHWVRQAHGQGLEWIGHISTYSGNTNNNQKFKGRATMTVDKSTSTAYMELRSLRSDDSTVYYCARGDYYGSFYKFEYWGQGTTVTVSS VL: DIQMTQSPSSLSASVGDRVTITCGASENIYGALNWFQRKPGKAPKLLIYGATNLADGMPSRFSGSGSGRDFTLTISSLQPEDFATYFCQNVLSIPYTFGQGTKLEIK | – | – | 1.23 | 0.82
PTA-2357 VH3/VK2 IgG1 antibody (antibody, V domains shown) VH: QVQLVQSGAEVKKPGASVKVSCKGSGYPFTDYTIHWVRQAPGQGLEWIGHISTYSGNTNNNQKFKGRATMTVDKSTSTAYMELRSLRSDDTTVYYCARGDYYGSFYKFEYWGQGTTVTVSS VL: DIKMTQSPSSLSASVGDRVTITCGASENIYGALNWFQRKPGKAPKLLIYGATNLADGMPSRFSGSGSGRDFTLTISSLQPEDFATYFCQNVLSIPYTFGQGTKLEIK | – | – | 1.06 | 1.57
PTA-2357 VH1/VK2 IgG1 antibody (antibody, V domains shown) VH: QVQLVQSGPELKKPGASVKVSCKGSGYPFTDYTIHWVRQAHGQGLEWIGHISTYSGNTNNNQKFKGRATMTVDKSTSTAYMELRSLRSDDSTVYYCARGDYYGSFYKFEYWGQGTTVTVSS VL: DIKMTQSPSSLSASVGDRVTITCGASENIYGALNWFQRKPGKAPKLLIYGATNLADGMPSRFSGSGSGRDFTLTISSLQPEDFATYFCQNVLSIPYTFGQGTKLEIK | – | – | 1.06 | 1.2
PTA-2357 VH2/VK2 IgG1 antibody (antibody, V domains shown) VH: QVQLVQSGAEVKKPGASVKVSCKGSGYPFTDYTIHWVRQAHGQGLEWIGHISTYSGNTNNNQKFKGRATMTVDKSTSTAYMELRSLRSDDSTVYYCARGDYYGSFYKFEYWGQGTTVTVSS VL: DIKMTQSPSSLSASVGDRVTITCGASENIYGALNWFQRKPGKAPKLLIYGATNLADGMPSRFSGSGSGRDFTLTISSLQPEDFATYFCQNVLSIPYTFGQGTKLEIK | – | – | 1.16 | 1.36
